Experiment [1] deals with human FcRn (AcrobioSystems; Catalog No: FCM-H5286) (human) (UniProt P55899). The experiment is described as follows: SPR Biacore 8K, antibody coupled to CM5 chip, human FcRn as analyte, pH 6.0, steady state affinity fit. In general terms: In SPR one partner is held on a chip, and binding of the other changes the refractive index at the surface.
In the next experiment the target is KLK5 (UniProt Q9Y337 67-293, limits assumed). The experiment can be described thus: cell-based or functional assay.
Experiment [2] deals with T1, recombinant human KLK5 C-6His (Novoprotein, Catalog No. C415) (human, UniProt Q9Y337 23-293).
T1 construct: Bought protein; also called KLK5 protein (Novoprotein); not shown: C-terminal 6xHis tag ('C-6His')
The experiment is described as follows: SPR Biacore T200, polypeptide captured by anti-human IgG Fc, KLK5 as analyte, pH 7.4, steady state affinity fit.

Experiment [3] deals with T1, recombinant human KLK5 C-6His …. The experiment is described as follows: ELISA on captured KLK5 C-6His; binder incubated in human serum, day 4. On the technique in general: ELISA stands for enzyme-linked immunosorbent assay.
Experiment [4] has the same target. The experiment can be described thus: ELISA on captured KLK5 C-6His; binder incubated in human serum, day 7.
The target is the same in experiment [5]. The experiment can be described thus: ELISA on captured KLK5 C-6His; binder incubated in human serum, day 1.
The target in another experiment is rhKLK7 (human, UniProt P49862 30-253). The experiment is described as follows: cell-based or functional assay.
Chain of rhKLK7 (P49862 30-253): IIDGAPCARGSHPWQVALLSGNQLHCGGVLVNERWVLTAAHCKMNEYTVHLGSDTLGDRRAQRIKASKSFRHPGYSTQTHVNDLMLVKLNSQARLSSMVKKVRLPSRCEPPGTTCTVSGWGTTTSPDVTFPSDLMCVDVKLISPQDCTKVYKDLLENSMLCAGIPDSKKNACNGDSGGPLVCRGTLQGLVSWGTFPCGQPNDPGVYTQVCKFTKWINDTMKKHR
The target in a further experiment is T2, rhKLK14 (human, UniProt Q9P0G3 25-251).
T2 sequence (looked up): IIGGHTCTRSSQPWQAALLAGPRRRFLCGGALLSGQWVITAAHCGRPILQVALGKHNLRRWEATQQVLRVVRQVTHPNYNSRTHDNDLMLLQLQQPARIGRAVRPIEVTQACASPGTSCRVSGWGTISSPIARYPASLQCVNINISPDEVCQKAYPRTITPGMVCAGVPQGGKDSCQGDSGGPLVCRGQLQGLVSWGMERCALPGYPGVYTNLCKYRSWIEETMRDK
The experiment can be described thus: cell-based or functional assay.

Experiment [6] has as its target T1, recombinant human KLK5 C-6His …. The experiment can be described thus: ELISA on captured KLK5 C-6His; binder incubated in human serum, day 14.
The target is the same in experiment [7]. The experiment can be described thus: ELISA on captured KLK5 C-6His; binder incubated in human serum, day 0.
The target in experiment [8] is T3, human FcRn (AcrobioSystems; Catalog No: FCM-H5286) (human, UniProt P55899 24-297; P61769 21-119).
T3 construct: Bought protein
T3 sequence (P55899 24-297 limits assumed, chain 1 of 2): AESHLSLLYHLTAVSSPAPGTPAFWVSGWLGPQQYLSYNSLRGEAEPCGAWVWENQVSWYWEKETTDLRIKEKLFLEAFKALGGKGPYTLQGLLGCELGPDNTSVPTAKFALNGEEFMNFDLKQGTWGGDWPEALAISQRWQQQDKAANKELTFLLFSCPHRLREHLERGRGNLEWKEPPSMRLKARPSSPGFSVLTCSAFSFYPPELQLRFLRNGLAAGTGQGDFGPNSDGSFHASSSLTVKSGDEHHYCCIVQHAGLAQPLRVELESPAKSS
T3 sequence (P61769 21-119 limits assumed, chain 2 of 2): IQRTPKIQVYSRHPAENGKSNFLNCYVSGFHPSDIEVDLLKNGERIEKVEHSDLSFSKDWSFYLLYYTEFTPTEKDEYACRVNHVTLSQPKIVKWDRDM
The experiment can be described thus: SPR Biacore 8K, polypeptide coupled to CM5 chip, human FcRn as analyte, pH 6.0, steady state affinity fit.

Experiment [9] deals with T1, recombinant human KLK5 C-6His …. The experiment can be described thus: ELISA, KLK5 C-6His captured by anti-His mAb; binder incubated in human serum, day 0.
Experiment [10] has the same target. The experiment can be described thus: ELISA, KLK5 C-6His captured by anti-His mAb; binder incubated in human serum, day 4.
Experiment [11] shares this target. The experiment can be described thus: ELISA, KLK5 C-6His captured by anti-His mAb; binder incubated in human serum, day 1.
Experiment [12] shares this target. The experiment can be described thus: ELISA, KLK5 C-6His captured by anti-His mAb; binder incubated in human serum, day 14.
Experiment [13] has the same target. The experiment can be described thus: ELISA, KLK5 C-6His captured by anti-His mAb; binder incubated in human serum, day 7.

One may read the Kd as the free concentration of one partner at which half of the binding sites on the other are occupied at equilibrium, for simple one-to-one binding. By EC50 is commonly meant the concentration giving half of the maximal effect.

Chain of human FcRn (AcrobioSystems; Catalog No: FCM-H5286) (human) (P55899 24-297 limits assumed, chain 1 of 2): as the sequence (P55899 24-297 limits assumed, chain 1 of 2) above
Chain of human FcRn (AcrobioSystems; Catalog No: FCM-H5286) (human) (P61769 21-119 limits assumed, chain 2 of 2, further chain): as the sequence (P61769 21-119 limits assumed, chain 2 of 2) above

Regarding Rituximab (Roche) (antibody), the dissociation constant (Kd) in [1] came out at 3.1 µM.

With Wild Type Spink9 (SEQ ID NO: 2), in the experiment with KLK5, the IC50 of KLK5 enzymatic activity, pH 5.5 amounted to 685 nM and the IC50 of KLK5 enzymatic activity, pH 7.5 stood at 80 nM.

B1: Spink9 WT (Fc fusion)
chain: IECAKQTKQMVDCSHYKKLPPGQQRFCHHMYDPICGSDGKTYKNDCFFCSKVKKTDGTLKFVHFGKC
notes: not shown: The C-terminal IgG Fc fragment of the wild-type fusion
For the molecule B1, the Kd in experiment [2] was determined as 99 nM.

B2: Spink9-112.K62G.Fc (SEQ ID NO: 56) (Fc fusion)
chain: IECAKQTKQMVDCSHYKKLPPEQELYCTREYDPICGSDGKTYGNDCFFCSKVKKTDGTLKFVHFGKCEPKSCDKTHTCPPCPAPEAAGGPSVFLFPPKPKDTLMISRTPEVTCVVVDVSHEDPEVKFNWYVDGVEVHNAKTKPREEQYNSTYRVVSVLTVLHQDWLNGKEYKCKVSNKALPAPIEKTISKAKGQPREPQVYTLPPSREEMTKNQVSLTCLVKGFYPSDIAVEWESNGQPENNYKTTPPVLDSDGSFFLYSKLTVDKSRWQQGNVFSCSVLHEALHSHYTQKSLSLSPGK
notes: Mutant SPINK9 domain fused directly to a C-terminal IgG Fc
Consider B2, for which the EC50 in experiment [3] was determined as 0.16 nM; in experiment [4], 0.17 nM; in [5], 0.14 nM; in experiment [6], 0.17 nM; in [7], 0.1 nM. The “KLK5 IC50 nM pH 5.5 (enzymatic activity)” value in the experiment with KLK5 turned out to be 0.9 nM. Also, the “KLK5 IC50 nM pH 7.5 (enzymatic activity)” value with KLK5 was found to be 1.1 nM. Also, in the experiment with rhKLK7, the “KLK7 IC50 (nM) pH 7.5 (enzymatic activity)” value (“KLK7 IC50” below) is 2.4 nM. Besides, in the experiment with rhKLK14, the “KLK14 IC50 (nM) pH 8.0 (enzymatic activity)” value turned out to be 246 nM. In [8], binding was put at a Kd of 233 nM.

B3: Spink9-186.Fc (SEQ ID NO: 58) (Fc fusion)
chain: IECAKQTKQMVDCSHYKKLPPAQLIYCTKEYDPICGSDGKTYKNDCFFCSKVKKTDGTLKFVHFGKCEPKSCDKTHTCPPCPAPEAAGGPSVFLFPPKPKDTLMISRTPEVTCVVVDVSHEDPEVKFNWYVDGVEVHNAKTKPREEQYNSTYRVVSVLTVLHQDWLNGKEYKCKVSNKALPAPIEKTISKAKGQPREPQVYTLPPSREEMTKNQVSLTCLVKGFYPSDIAVEWESNGQPENNYKTTPPVLDSDGSFFLYSKLTVDKSRWQQGNVFSCSVLHEALHSHYTQKSLSLSPGK
notes: as for B2
Take B3: the 50% effective concentration (EC50) in experiment [3] turned out to be 0.21 nM; in experiment [4], 0.12 nM; in experiment [5], 0.16 nM; in experiment [6] it was 0.29 nM; in experiment [7], 0.09 nM. The “KLK5 IC50 nM pH 5.5 (enzymatic activity)” value with KLK5 stood at 8.3 nM. Moreover, in the experiment with KLK5, the “KLK5 IC50 nM pH 7.5 (enzymatic activity)” value came out at 1.9 nM. The equilibrium dissociation constant (Kd) in experiment [2] was determined as 0.0189 nM; in [8], 232 nM. For the same molecule, in the experiment with rhKLK7, the “KLK7 IC50” value amounted to 8.3 nM. Besides, the “KLK14, percent inhibition at 316 nM SPINK9 polypeptide, pH 8.0” value (shortened to “KLK14, percent inhibition”) with rhKLK14 came out at 0%.

B4: Spink9-236.Fc (SEQ ID NO: 60) (Fc fusion)
chain: IECAKQTKQMVDCSHYKKLPPEQQLMCTREYDPICGSDGKTYKNDCFFCSKVKKTDGTLKFVHFGKCEPKSCDKTHTCPPCPAPEAAGGPSVFLFPPKPKDTLMISRTPEVTCVVVDVSHEDPEVKFNWYVDGVEVHNAKTKPREEQYNSTYRVVSVLTVLHQDWLNGKEYKCKVSNKALPAPIEKTISKAKGQPREPQVYTLPPSREEMTKNQVSLTCLVKGFYPSDIAVEWESNGQPENNYKTTPPVLDSDGSFFLYSKLTVDKSRWQQGNVFSCSVLHEALHSHYTQKSLSLSPGK
notes: as for B2
With B4, the EC50 in experiment [3] is 0.12 nM; in experiment [4] it was 0.1 nM; in experiment [5] it was 0.08 nM; in experiment [6] it was 0.11 nM; in [7], 0.05 nM. For the same molecule, the “KLK5 IC50 nM pH 5.5 (enzymatic activity)” value with KLK5 came out at 3.5 nM. In addition, in the experiment with KLK5, the “KLK5 IC50 nM pH 7.5 (enzymatic activity)” value is 1.5 nM. Besides, the results for the dissociation constant (Kd) in [2] and in experiment [8] were 0.0291 nM and 231 nM, respectively. In addition, in the experiment with rhKLK7, the “KLK7 IC50” value is 43.6 nM. Also, the “KLK14, percent inhibition” value in the experiment with rhKLK14 was 0%.

B5: SPINK9-112.2K62G.Fc (SEQ ID NO: 76) (Fc fusion)
chain: IECAKQTKQMVDCSHYKKLPPEQELYCTREYDPICGSDGKTYGNDCFFCSKVKKTDGTLKFVHFGKCEPKSCDKTHTCPPCPAPEAAGGPSVFLFPPKPKDTLYITREPEVTCVVVDVSHEDPEVKFNWYVDGVEVHNAKTKPREEQYNSTYRVVSVLTVLHQDWLNGKEYKCKVSNKALPAPIEKTISKAKGQPREPQVYTLPPSREEMTKNQVSLTCLVKGFYPSDIAVEWESNGQPENNYKTTPPVLDSDGSFFLYSKLTVDKSRWQQGNVFSCSVMHEALHNHYTQKSLSLSPGK
notes: as for B2
Turning to B5, the concentration for a half-maximal effect (EC50) in experiment [9] was 0.06 nM; in experiment [10], 0.08 nM; in experiment [11], 0.059 nM; in experiment [12], 0.065 nM; in [13] it was 0.11 nM. In experiment [8], binding was characterised by a dissociation constant (Kd) of 189 nM.

B6: Spink9-30.Fc (SEQ ID NO: 55) (Fc fusion)
chain: IECAKQTKQMVDCSHYKKLPPEQVSWCTREYDPICGSDGKTYKNDCFFCSKVKKTDGTLKFVHFGKCEPKSCDKTHTCPPCPAPEAAGGPSVFLFPPKPKDTLMISRTPEVTCVVVDVSHEDPEVKFNWYVDGVEVHNAKTKPREEQYNSTYRVVSVLTVLHQDWLNGKEYKCKVSNKALPAPIEKTISKAKGQPREPQVYTLPPSREEMTKNQVSLTCLVKGFYPSDIAVEWESNGQPENNYKTTPPVLDSDGSFFLYSKLTVDKSRWQQGNVFSCSVLHEALHSHYTQKSLSLSPGK
notes: as for B2
Take B6: the EC50 in experiment [3] was 0.1 nM; in experiment [4], 0.1 nM; in [5], 0.1 nM; in experiment [6], 0.13 nM; in experiment [7] it was 0.08 nM. In the experiment with KLK5, the “KLK5 IC50 nM pH 5.5 (enzymatic activity)” value came to 2.4 nM. In addition, the “KLK5 IC50 nM pH 7.5 (enzymatic activity)” value in the experiment with KLK5 is 2.2 nM. Moreover, the Kd worked out at 0.0909 nM in experiment [2] and 229 nM in experiment [8]. In addition, the “KLK7 IC50” value with rhKLK7 came out at 10.8 nM. Besides, the “KLK14, percent inhibition” value in the experiment with rhKLK14 came out at 0%.

B7: Spink9-183.Fc (SEQ ID NO: 57) (Fc fusion)
chain: IECAKQTKQMVDCSHYKKLPPQQQAYCTRDYDPICGSDGKTYKNDCFFCSKVKKTDGTLKFVHFGKCEPKSCDKTHTCPPCPAPEAAGGPSVFLFPPKPKDTLMISRTPEVTCVVVDVSHEDPEVKFNWYVDGVEVHNAKTKPREEQYNSTYRVVSVLTVLHQDWLNGKEYKCKVSNKALPAPIEKTISKAKGQPREPQVYTLPPSREEMTKNQVSLTCLVKGFYPSDIAVEWESNGQPENNYKTTPPVLDSDGSFFLYSKLTVDKSRWQQGNVFSCSVLHEALHSHYTQKSLSLSPGK
notes: as for B2
On to B7, for which the EC50 in [3] turned out to be 0.12 nM; in experiment [4], 0.11 nM; in experiment [5], 0.09 nM; in [6], 0.1 nM; in [7] it was 0.07 nM. Moreover, the “KLK5 IC50 nM pH 5.5 (enzymatic activity)” value in the experiment with KLK5 is 3 nM. For the same molecule, the “KLK5 IC50 nM pH 7.5 (enzymatic activity)” value with KLK5 worked out at 1.4 nM. For the same molecule, the equilibrium dissociation constant (Kd) in experiment [2] was found to be 0.0216 nM; in [8], 222 nM. In the experiment with rhKLK7, the “KLK7 IC50” value was determined as 5.4 nM. In the experiment with rhKLK14, the “KLK14, percent inhibition” value was determined as 0%.
